Data on 1 substance can be found in publication PMC4184034.

This data set concerns dCas9 (SpyCas9 D10A/H840A) (Streptococcus pyogenes). In words: DNA binding assay. The settings on record: not given in the material (Methods are in the supplement, not held).

Broadly, the Kd is the equilibrium constant for the complex coming apart. In the case of crRNA:tracrRNA + 55-bp target dsDNA, the Kd was 4 nM.
